Data reported in the supplement of paper PMC9170038.

Test system: MS2 coat protein
Assay: apparent KD of MS2 coat protein; designed switch direction (-1 OFF switch, 1 ON switch): -1; higher = weaker reporter binding
Procedure, shortened: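 SNAP-549-labelled MS2 coat protein was titrated, doubling from 0.7 or 1.5 nM to 3 µM, over designed RNA switches transcribed on Illumina chips by stalled E. coli RNA polymerase. Runs were done without input, with 200 uM small-molecule ligand, or with an oligonucleotide input. Apparent KD is the per-design median over clusters of curve-fitted normalised fluorescence.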

[1] = Eterna round: R95, input ligand: microRNA oligo, concentration not stated
[2] = Eterna round: R95, input ligand: FMN 200 uM
[3] = Eterna round: R95, input ligand: none
[4] = input ligand: microRNA oligo, concentration not stated

Sequence	apparent KD of MS2 coat protein [1] [nM]	apparent KD of MS2 coat protein (input ligand: FMN 200 uM) [nM]	apparent KD of MS2 coat protein (input ligand: none) [nM]	further results
CUUUUGUGAGGAUAUCAGUAGUAGAACAAUAGUACUACUACUGAGAAGGCACAUGAGGAUCACCCAUGUUUCUC [Fiskers Ex 4 Super stable 44 mod 4] (puzzle: Exclusion 4)	58.7			
AGCGAGGCAGGAUAUACAUGAGGAUCACCCAUGUGCUUGCAUGGCGUGGGACGUCAACGUAGAAGGGCCAUGCC [EX3 #68] (Eterna round: R97, puzzle: Exclusion 3)		76.3	117	
AGUACUAUGCGAGCUGACUUGCGUAGUGCAGCAGGUGAAACAUGAGGAUCACCCAUGUCCUCAUUUGCUCGUCUUAA [Mat - Sensor v3 - Turn-off var 2 - D3] (puzzle: Sensor v3, turn-off variant 2)	563			apparent KD of MS2 coat protein [2]: 39.7 nM; apparent KD of MS2 coat protein [3]: 38 nM
UAGAAUCGAGGAUAUACAUGAGGAUCACCCAUGUGUGGCCAUACGGUGUGGUCGUCAGGUAGAAGGCGAUUAUA [Exclusion 3 - Mod of Jieux's Gilly Gone Silly 23 v.2] (puzzle: Exclusion 3)	28			
AAAUACGCUGAGGAUAUGCGGCGCACAAAAUAAGCAGAAGGCAGCACUUGAGGAUCACCCAAGUGGCCCGAGAA [Enusrees] (Eterna round: R97, puzzle: Exclusion 6)		15.5	8	
UUCAGACAUGAGGAUCACCCAUGUGAGGAUAUGAUGCAGCAGUGGUCUACGCUGUGCAUCAGAAGGCACAUGUG (puzzle: Exclusion 1)	99.6			
GGCAGACAUGAGGAUCACCCAUGUGAGGAUAUGGUGCGAUCGUCGAUAGACGAUAGCACCAGAAGGCACAUGCC [Mat - Exclusion 1 - Eli Mod - D4] (Eterna round: R97, puzzle: Exclusion 1)		159	34.5	
GGACCUCCUGAGGAUAUUGUAUCACCCGACUGAUAAGAAGGCAGAACAUGAGGAUCACCCAUGUGGGUACUCGG [Bingo-Bango-14] (Eterna round: R97, puzzle: Exclusion 6)		34.6	38.4	
CUGGUCCGAGGAUAUAUGAUGUGAAACAUGAGGAUCACCCAUGUAAUAUUAUGGAAGAAAAUAGAAGGCGGACUAG [Mat - Exclusion 5 - JL mod - D38] (puzzle: Exclusion 5)	64.3			apparent KD of MS2 coat protein [2]: 37.2 nM; apparent KD of MS2 coat protein [3]: 71.5 nM
AACAUGUGAGGAUAUGAGAACAGUCCGGAGGACUGUGUAAAUUAGAAGGCACAUGAGGAUCACCCAUGUGACCU [Laonar] (Eterna round: R97, puzzle: Exclusion 4)		32.6	15.8	
ACGCAUUGCCUUUGGUAGUGCGUAACAUGAGGAUCACCCAUGUAGGAUAUGGUAGGCUUUGCUUACCAGAAGGACAUAAUAAUU [JL ENG3 1.01] (Eterna round: R96, puzzle: Exclusion NG 3)		54.1	26.1	apparent KD of MS2 coat protein [4]: 21.7 nM
UAUGGUUAAGUCAGGAUAUGCUCGUAGUGGUCUAUGCAGAAGGGACAUGAGGAUCACCCAUGUAUGGUCGUGUU [Ex4 #68] (Eterna round: R97, puzzle: Brourd's mod of Exclusion 4)		119	106	
UUUUACCAAGGAUAUACAUUUUUUUUAUUAUUUUCAUUAUAACAUGAGGAUCACCCAUGUAGAAGGUGGAUUUU [My Design] (puzzle: Exclusion 2)	59.6			
AGGCAAUCAGGAUAUACAUGAGGAUCACCCAUGUGUACAAAGCACAUCCGAUCUAGAUGUAGAAGGGAUAUGCA [Usmabesobi] (puzzle: Exclusion 3)	18			
UUGUUACAUGAGGAUCACCCAUGUGAGGAUAUGGCCCGCCCGGCGUGAGCUGGUUUUGUCAGAAGGCGCAUAGG [salish99_ex1_r4_024] (Eterna round: R97, puzzle: Exclusion 1)		79.6	54.2	
GGAUCGAGUGUGAGGAUAUACCACUGGAUACAGUGGUAGAAGGCACAUGAGGAUCACCCAUGUCCUUACGAUCC [Fiskers BMX 4 - 46] (puzzle: Brourd's mod of Exclusion 4)	66			
UUCGUGUAAGGAUAUACGACCCAUCCCAUUGGGAUGGGCACGUAGAAGGUACAUGAGGAUCACCCAUGUGCUCC [Ceacequa] (Eterna round: R96, puzzle: Exclusion 4)		298	41.4	apparent KD of MS2 coat protein [4]: 34.4 nM
CGUCCUGAUGACAACUUACAUGAGGAUCACCCAUGUGCCUCGCAGGAUAUCCCAGCACGUCGCAAGGAGAAGGGCGACGCGCCA [Ceeninge] (Eterna round: R96, puzzle: Exclusion NG 3)		18	19	apparent KD of MS2 coat protein [4]: 13.7 nM

Sequence	apparent KD of MS2 coat protein [1] [nM]	apparent KD of MS2 coat protein (input ligand: FMN 200 uM) [nM]	apparent KD of MS2 coat protein (input ligand: none) [nM]	further results
UCACGCACUGUUAGGAUAUGUAUUAUGAAGGUAGUACAGAAGGAACAUGAGGAUCACCCAUGUAAUCCUGGGUG [Eternabot (L1) Solution 61] (Eterna round: R97, puzzle: Brourd's mod of Exclusion 4)		726	93.1	
GAUAGAGCAGGAUAUCGAGAUCCGCACAUGAGGAUCACCCAUGUUCGGUCGAAAGACCGACGAGAAGGGCUCUAUC [Omei Ex5 E8] (Eterna round: R97, puzzle: Exclusion 5)		639	603	
UAUUUGCAAGGAUAUGAUUUAAGUAACAUGAGGAUCACCCAUGUUUAUCCGUUGUUAUGUUCAGAAGGUGCGUGAU [JR_E5_Sub019] (puzzle: Exclusion 5)	50.2			
AACUCUGAGAAGGAUAUUCAGUGGGAAACGACAGAAGAAGGUUUCACAUGAGGAUCACCCAUGUCGAAUAGUGA [EX6 #75] (Eterna round: R97, puzzle: Exclusion 6)		46.8	48.8	
GCCAGAGCAGGAUAUUCAGUAUCACACAUGAGGAUCACCCAUGUCCACGGAAACGUGGAGGGAGAAGGGCUCUGGC [Mat - Exclusion 5 - Eli mod - D96] (puzzle: Exclusion 5)	126			apparent KD of MS2 coat protein [2]: 35.6 nM; apparent KD of MS2 coat protein [3]: 157 nM
CCGUGCACGCUGCGCUCCUACAUGAGGAUCACCCAUGUGGUCCGGUGGCGUGGGUCGCCGGACUUGGCUCGUCUUGU [salish99_S_TOV1_R5_019] (Eterna round: R97, puzzle: Sensor, turn-off variant 1)		83.1		
ACAUCACAGCUAGGAUAUAUAUGACAUGAGGAUCACCCAUGUUGUCCCAUGUUGACGAAAACCGAAUAGAAGGAGCCACAGAUG [Ex NG2 #3] (Eterna round: R96, puzzle: Exclusion NG 2)		91.3	67.2	apparent KD of MS2 coat protein [4]: 61.5 nM
GACCACUCAGGAUAUCGGACGGGAAACAUGAGGAUCACCCAUGUGAUGCUGAUAUUCGCACGAGAAGGGAGAAUGA [EX5 B.21] (Eterna round: R97, puzzle: Exclusion 5)		19.8	18.8	
UUAAUACAUGUAGGAUAUGCGUGGCGAAGCUAUGCAGAAGGACAUGAGGAUCACCCAUGUCUAUGCGUCCGCGUACGGAUGCAA [JL Eng1 1.21 mod 6] (Eterna round: R96, puzzle: Exclusion NG 1)		18.4	16.4	apparent KD of MS2 coat protein [4]: 9.06 nM
AAUUCGGCAGGAUAUACAUGAGGAUCACCCAUGUAAAUUUUUCGUUUAACUUGAAUGUGUAGAAGGGCCAUUAA [Ex3 #63] (Eterna round: R97, puzzle: Exclusion 3)		27.6	28.8	
GACGCUGACCGAGGAUAUACAAUAAAACAACAAACUCCUCGUGUCAGAACAUGAGGAUCACCCAUGUAGAAGGCGGCAGGUCUA [Rilebibidi] (Eterna round: R96, puzzle: Exclusion NG 2)		78.5	58.1	apparent KD of MS2 coat protein [4]: 44.4 nM
UCUUAUAGAGGAUAUACAGAUUAUUACAUGAGGAUCACCCAUGUUCUUCAAUGUAUAUAUGUAGAAGGCUAAGGAU [Mat - Exclusion 5 - JL Mod - D9] (Eterna round: R97, puzzle: Exclusion 5)		316	111	
UUAGAAAUGUUAGGAUAUUAAUAUUUUUUUAGUAUGAUCUACAUGAGGAUCACCCAUGUUAAUAUUAAGAAGGAACAUUUUAUU [JR_ExcNG2_Sub099] (Eterna round: R96, puzzle: Exclusion NG 2)				apparent KD of MS2 coat protein [4]: 71.5 nM
ACAUGAGGAUCACCCAUGUAAUCAUAAUGGCUGAUGUAGAGUCAGGAUAUGUGUGGCUUACUAUCGCAGAAGGGACAAGACUGG [Deportation 33 - Jieux - Exclusion NG 3] (Eterna round: R96, puzzle: Exclusion NG 3)		26.3	25.9	apparent KD of MS2 coat protein [4]: 14.2 nM
GAUAUGCGUGUGAGGAUAUUCGACGCGCAAACGGAGAAGAAGGCACAUGAGGAUCACCCAUGUGGAGGGAAGAA [BmEX4 A.13] (Eterna round: R97, puzzle: Brourd's mod of Exclusion 4)		82.8	20.7	
AUACUCGUUGUGAGGAUAUCGUUUUCUUUACGGAUCGAGAAGGCACAUGAGGAUCACCCAUGUUUGACGUGAAU [JR_BMOE4_Sub093] (puzzle: Brourd's mod of Exclusion 4)	30.8			
UCGCUGCGAGGAUAUACGUGCGCGCGCGCGCGCGCGCGCGUACAUGAGGAUCACCCAUGUAGAAGGCGCUCUGC [Apr-15 SS2-2] (puzzle: Exclusion 2)	22.9			
UAUUAUCAAGCAAGAUCCCACAUGAGGAUCACCCAUGUGCUCGUCUUAUUUCCGGCCUUAUUGGGCUCUCGUCUAAU [JR_STOV1_v2_Sub094] (Eterna round: R97, puzzle: Sensor, turn-off variant 1)		34	33.5	
